Reference: the nanobody polyreactivity screen of Harvey et al. (2022)

Experiment: yeast display, Sf9 membrane polyspecificity reagent, FACS + sequencing; frameworks hold sequencing errors
Method in brief: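 Polyreactivity labels are assigned by the sorting gate from which each nanobody was recovered. The gates were low and high (top ~1%), set on anti-HA fluorescence for expression and streptavidin fluorescence for reagent binding. Before sorting, galactose-induced (36–48 hours) yeast display cells were stained for 1 hour at 4 °C with 10% biotinylated, detergent-solubilized Sf9 membrane reagent.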

| Sequence | polyreactivity (PSR sort gate) |
| --- | --- |
| QVQLVESGGGLVQAGGSLRLSCAASGSTFQPYAMGWYIQAPGKEREFVATISGSAGSTYYADSVKGRFKISRDNAKNTVYLQMNSLKPEDTAVYYCNADSGWFGYDYWGQGTQVTVSS | low polyreactivity |
| QVQLVESGGGLVQAGGSLRLSCAASGSTFQPYAMGWYRQAPGKEREFVATISGSAGSTYYADSVKGRFKISRDNAKNTVYLQMNSLKPEDTGVYYCNARPARKSLDYDYWGQGTQVTVSS | low polyreactivity |
| QVQLVESGGGLVQAGGSLRLSCAASGSTFQPYAMGWYRQSPGKEREFVATISGSAGSTYYADSVKGRFKISRDNAKNTVYLQMNSLKPEDTAVYYCNADSGWFGYDYWGQGTQVTVSS | low polyreactivity |
| QVQLVESGGGLVQAGGSLRLSCAASGSTFQRNAMGWYRQAPGKERELVAAITSRGGSTYYADSVKGRFTISRDNAKNTVSLQMNSLNPEDTGVYYCAALTWARSRNGTYDYWGPGTQVTVSS | high polyreactivity |
| QVQLVESGGGLVQAGGSLRLSCAASGSTFQRYAMGWYRQAPGKERELVAAITWSGGSTKYADSVKGRFTISRDNAKNTVYLQMNSLKPEDTAVYYCAATPGRGGGYNYWGQGTQVTVSS | low polyreactivity |
| QVQLVESGGGLVQAGGSLRLSCAASGSTFQSYAMGWYRQAPGKERELVAAISTSDTDRTYYADSVKGRFTISRDNAKNTVYLQMNSLKPEDTAVYYCNADGYSHGDWYGYWGQGTQVTVSS | low polyreactivity |
| QVQLVESGGGLVQAGGSLRLSCAASGSTFQTYAMGWYRQAPGKERELVAAITSGGSTNYADSVKGRFTISRDNAKNTVYLQMNSLKPEDTAVYYCAVRQIYQTSDHRLQYDYWGQGTQVTVSS | low polyreactivity |
| QVQLVESGGGLVQAGGSLRLSCAASGSTFQTYAMGWYRQPPGKERELVAALNWRSGSTYYADSVKGRFTISRDNATNTVYLLMTSVKPEDTAVYDCARRSTGYTFDVSSMDYWGQGTQVTLSS | low polyreactivity |
| QVQLVESGGGLVQAGGSLRLSCAASGSTFQWNTMGWYRQAPGKERELVARITGGGGSTYYADSVKGRFTISRDNAKNTVYLQMNSLKPEDTAVYYCNAAIFGRYEYWGQGTQVTVSS | low polyreactivity |
| QVQLVESGGGLVQAGGSLRLSCAASGSTFQWYTMGWYRQAPGKERECVAAISRSGGRTYYADSVKGRFTISRDNAKNTVYLQMNSLKPVDTAVYYCAKYYYLYWSSQRDYWGQGTQVTVSS | high polyreactivity |
| QVQLVESGGGLVQAGGSLRLSCAASGSTFQWYVMGWYRQAPGKERELVAAITWSGGSTYYADSVKGRFTISRDNAKNTVYLQMNSLKPEDTAVYYCNAVFWIWNAGYDYWGQGTQVTVSS | low polyreactivity |
| QVQLVESGGGLVQAGGSLRLSCAASGSTFQYNAMGWYRQAPGKERELVAVISGSGSRTYYADSVKGRFTISRDNSKNTVYLQMNSLKPEDTAVYYCAKQRGGQPRSSTYYYWGQGTQVTVSS | high polyreactivity |
| QVQLVESGGGLVQAGGSLRLSCAASGSTFQYNAMVGYIQAPGKERELVAAISRGSSTKYADSVKGRFTISRDNAKNTVYLQMNSLKPEDTAVYYCAVDTRPSHRTRAYYYWGQGTQVTVSS | high polyreactivity |
| QVQLVESGGGLVQAGGSLRLSCAASGSTFQYNDMGWYRQAPGKERELVAAISSSGGSTSYADSVKGRFTISRDNAKNTVYLQMNSLKPEDTAVYYCAASYPGYHLYRDDYWGQGTQVTVSS | low polyreactivity |
| QVQLVESGGGLVQAGGSLRLSCAASGSTFRAYAMGWYRQAPGKERELVAAISKRGGSTYYADSVKGRFTISRDNAKYTVYLQMNSLKPEDTAVYYCNAATRSPFDYWGQGTQVTVSS | high polyreactivity |
| QVQLVESGGGLVQAGGSLRLSCAASGSTFRFNAMGWYRQAPGKEREFVAAIRFTGGSTYYADSVKGRFTISRDNAKNTVYLQMNSLKPEDSAVYYCNNADEYSTVEYDYWGQGTQVTVSS | low polyreactivity |
| QVQLVESGGGLVQAGGSLRLSCAASGSTFRFNAMGWYRQAPGKEREFVAAISTSGGSTYYADSVKGRFTISRDNAKNTVYLQMNSLKPEDTAVYYCATRRRIRSSFYYDNDYWGQGTQVTVSS | high polyreactivity |
